Sequences and labels used below:
B1: OR4K15 (parent)
chain: GUUAACGGUCAUAGGCCAUGGAAACUAGGAGCACCAUUUCGCUGCCAGUGAAGAAAUGAACAAAGAAAAUCUGGGCCAGGCAGGCAUCAAAAGAAAUAGUCUUGCGCUCAACCAGAAAGUCUGUAAUCAUUUUAAGGGUA

The source of these data is the RNAGym collection of RNA variant scans (doi:10.7554/elife.90254).

The variants in the data set derive from B1. Kind of data set: self-cleavage, relative activity (ratio to wild type); higher = more cleavage; in vitro, sequencing; the parent is a self-cleaving ribozyme.
On to U57C A94U, for which the self-cleavage was found to be 1.23.

On to A63G U103G, for which the self-cleavage was found to be 0.01. In the case of A24G C85U, the self-cleavage is 0.95. On to U39C A55G, for which the self-cleavage worked out at 1.66. Turning to U70C U102C, the self-cleavage came out at 1.57. Regarding A11U G15A, the self-cleavage came to 1.97. Regarding A18U U103C, the self-cleavage was found to be 1.29.

Regarding A69G U130G, the self-cleavage came out at 1.3. Take A24G U122C: the self-cleavage came out at 0.84. On to U122C U127A, for which the self-cleavage was 2.22. As to U49A U120C, the self-cleavage came to 0.84. For A22U U26C the value was 0.97. On to U3C A86G, for which the self-cleavage came to 1.05. With A13C U122C, the self-cleavage was found to be 1.03. As to A63U U100C, the self-cleavage was 2.04. For the variant A11U A135U, the self-cleavage was 0.98. As for U72G G74A, the self-cleavage was 0.18. As to A94U A116C, the self-cleavage was determined as 0.07. Turning to C6U A82G, the self-cleavage was found to be 0.72. As for G7U, the self-cleavage was 1.23. For A24G C88U the value was 0.95. Consider A36U A117U, for which the self-cleavage worked out at 0.88.

For A94G A118G, the self-cleavage is 0.8.

As to U122A U131C, the self-cleavage turned out to be 0.34.

U9A U100C: the self-cleavage was determined as 1.68. On to A69U A94U, for which the self-cleavage came to 2.23. As for A22G A125U, the self-cleavage was found to be 1.32. To A67G C128U belongs 0.62; to G74A U131C, 0.19. For G14A A110G the value was 0.13; for A51C A94G, 2.16. Consider A89C A118G, for which the self-cleavage came out at 0.51. A22U A55G: the self-cleavage came to 0.73.

Take A63G A125C: the self-cleavage was determined as 1.23.

Consider A11G A63G, for which the self-cleavage was determined as 1.1.

As to A22U U130C, the self-cleavage turned out to be 0.32.

On to A4G A36G, for which the self-cleavage was 1.43. Take A89C G106C: the self-cleavage is 0. Turning to A13G A111G, the self-cleavage is 0.15. To A24G U97A belongs 1.79; to G21A A36G, 1.9; to U9C A33U, 1.73.

In the case of A11G A27G, the self-cleavage came out at 1.1. On to A68U U108A, for which the self-cleavage is 0.05. In the case of A27C, the self-cleavage was determined as 1.21. In the case of U70C U127A, the self-cleavage is 0.95. For the variant A62U U108A, the self-cleavage worked out at 0.02. As for C42U A66G, the self-cleavage came to 1.64. Take C6U U108C: the self-cleavage is 0.08.

For the variant A11C A114U, the self-cleavage was 0.09.

On to A67G U100C, for which the self-cleavage was 2.32.

For A30G A92U, the self-cleavage is 0.71. Regarding C88U A140G, the self-cleavage was found to be 2.02.

As to A11G G48A, the self-cleavage was determined as 1.9.

Consider A94G A116C, for which the self-cleavage was 0.24.

For U127A A135G, the self-cleavage came out at 2.31. For A62C U87C the value was 1.51; for U72C A86U, 0.14.

As to U70G U103C, the self-cleavage was 1.08. For U38A A59G the value was 1.14. Turning to A89G C105U, the self-cleavage stood at 0.07.

For C121A U127C, the self-cleavage was found to be 0.2. As for A36C U37A, the self-cleavage was determined as 1.85.

Regarding A135G G137A, the self-cleavage is 0.09.

Consider U38C U132C, for which the self-cleavage came out at 1.64. For A59G A62C the value was 0.43; for A67C U139C, 2.18.

Regarding G29U C88U, the self-cleavage is 2.55. Take U2C A129G: the self-cleavage amounted to 0.75. Turning to A60U A64G, the self-cleavage amounted to 0.65. Regarding A13U A22U, the self-cleavage worked out at 1.45. Take U37G A118G: the self-cleavage stood at 0.99. Turning to U9G U108C, the self-cleavage was determined as 0.05. Consider A24G A98U, for which the self-cleavage worked out at 1.74. Regarding A18U A24G, the self-cleavage is 1.31. For A13U C34U the value was 1.2; for A36U U49A, 0.81; for A18U U19C, 0.12.

Take U102C A126G: the self-cleavage was 1.89. Take A68G U103A: the self-cleavage stood at 0.5. Take U49A A55G: the self-cleavage is 1.53.

Take U3A A126G: the self-cleavage was found to be 1.73. As for A82U A111G, the self-cleavage amounted to 0.02.

Consider A52G U133C, for which the self-cleavage worked out at 1.33. Take A47G A117G: the self-cleavage was 1.32. On to A36G U43C, for which the self-cleavage is 1.91.

As to U37C A90G, the self-cleavage amounted to 1.12. To A129G U130A belongs 1.41. Regarding G7U A60G, the self-cleavage was 0.79. For U72A A94G the value was 0.02; for U102A A129U, 0.31; for A13G A129G, 0.85. As for A52U A54U, the self-cleavage was found to be 1.62. Consider A82G A114U, for which the self-cleavage amounted to 0.03. As to A68C A92G, the self-cleavage came out at 1.88. Consider G58U U87C, for which the self-cleavage worked out at 0.38.

Consider C6A U124A, for which the self-cleavage was 0.95. Consider A91G U139A, for which the self-cleavage stood at 1.64.

Consider U37C A82U, for which the self-cleavage is 0.13. As to U97A U139A, the self-cleavage amounted to 1.2. To A59G U132C belongs 0.46. For A51G A54G, the self-cleavage came to 0.81. A33U A117G: the self-cleavage stood at 1.9. With U12C A47U, the self-cleavage is 0.93. On to G75A A114G, for which the self-cleavage amounted to 0.04. For A22G A69G the value was 1.07; for U37C A59G, 1.72.

Take A59G A134U: the self-cleavage amounted to 1.94. Consider A69U, for which the self-cleavage came out at 1.81. Regarding C10U A118G, the self-cleavage worked out at 0.33. As for A60G U103G, the self-cleavage turned out to be 0.05. On to U39C U139C, for which the self-cleavage was determined as 1.9. As for A86U A91G, the self-cleavage was 1.93. To G15U U38A belongs 1.8; to A23U A117U, 0.6; to U9C A18G, 1.65. With A11G G115U, the self-cleavage was determined as 0.27.

In the case of A51G A63U, the self-cleavage worked out at 1.83.

On to A4G U70C, for which the self-cleavage was 0.79.

As for A33G U127A, the self-cleavage was 1.19. To U57A A60G belongs 1.19; to U38C, 1.45.

Regarding A56C A117G, the self-cleavage is 1.17. On to U12C A134G, for which the self-cleavage was determined as 1.7. For the variant G41A A116G, the self-cleavage stood at 0.63.

Take C81U: the self-cleavage was 0.35. On to U12C A126C, for which the self-cleavage came to 0.42.

For U100C A114U, the self-cleavage came to 0.16.

With A54U A118G, the self-cleavage was 0.95. A47U U127A: the self-cleavage was found to be 0.24.

For the variant U49C A66U, the self-cleavage amounted to 1.39. In the case of A59U A117C, the self-cleavage was found to be 0.63. For A52G A116U the value was 0.12.

For A23C A59G, the self-cleavage turned out to be 0.63. For C45U A96U the value was 1.55. For C6U A62G the value was 0.56.

In the case of A11G A69G, the self-cleavage was 0.99. A11G A69U: the self-cleavage was 1. As to U9C U57G, the self-cleavage came to 1.07. Regarding C40A A68G, the self-cleavage came to 1.61.

With U39G A95G, the self-cleavage is 1.81.

Take A5U U100C: the self-cleavage amounted to 1.64. For A36U U108A the value was 0.

Regarding C6U A33U, the self-cleavage was determined as 1.05. Take A95G A110G: the self-cleavage worked out at 0.15. U9G A89U: the self-cleavage came to 1.03.

With A62U G99A, the self-cleavage worked out at 0.62. With A90G A118G, the self-cleavage was determined as 0.47. On to A33G A110G, for which the self-cleavage is 0.15.

Regarding A22G A118G, the self-cleavage stood at 0.99. In the case of A22G A54U, the self-cleavage stood at 1.08. As to U26C U122A, the self-cleavage came out at 1.87. As to C45U U127C, the self-cleavage was determined as 0.56. A69G A129U: the self-cleavage amounted to 0.33. Take U26C A60U: the self-cleavage is 1.43. On to U3C G75A, for which the self-cleavage came to 0.11. Turning to A23U U38C, the self-cleavage was found to be 0.48. To A60U A96G belongs 1.78; to A68G A91C, 1.44; to A47U G84A, 1.13. For A22C A114U the value was 0.08.

For the variant G44A A134G, the self-cleavage was found to be 1.84. Regarding G31A, the self-cleavage is 1.52. For the variant U122A A135U, the self-cleavage turned out to be 1. With A47C A125G, the self-cleavage stood at 0.42. To A22G U43C belongs 0.78; to A52G A110C, 0.26.
